Measured values reported in article PMC9050680, “Interaction of human CRX and NRL in live HEK293T cells measured using fluorescence resonance energy transfer (FRET)” (Scientific Reports, 2022).

Biological target: the molecule itself
Assay: FRET or BRET; FC-FRET: flow cytometry, sensitized emission (three-cube N_FRET, apparent FRET efficiency) in live transiently cotransfected HEK293T cells suspended in PBS; donor EGFP, acceptor mCherry; population means and dependence on expression level compared with unlinked mCh + eG

Row | Protein | N_FRET (mean apparent FRET efficiency) [%]
1 | human NRL with mCherry or EGFP fused to the N-terminus (near the activation domain) (natural protein, NRL, human, neural retina-specific leucine zipper protein; coding region cloned in derivatives of pEGFP-N1 with an NLS and a linker to EGFP or mCherry; mNRL (mCherry, acceptor) and eNRL (EGFP, donor) differ only in the fluorophore and are written as one molecule; The discussion speaks of (Gly)5 linkers between the fluorophores and NRL; also called mNRL; eNRL; source: HEK293T, transiently …) not shown | 2.5
2 | human CRX with mCherry or EGFP fused to the N-terminus (near the homeodomain) (natural protein, CRX, human, cone-rod homeobox protein; coding region cloned in derivatives of pEGFP-N1 with an NLS and a linker to EGFP or mCherry; mCRX (mCherry, acceptor) and eCRX (EGFP, donor) differ only in the fluorophore and are written as one molecule; mCRX + eCRX is a row of m1 with itself; also called mCRX; eCRX; source: HEK293T, transiently transfected, in live cells (fixed cells for acceptor …)) not shown | 3.3
